For one substance, proteasome activity (breakdown of Suc-LLVY-AMC) in total extracts of N. benthamiana leaves transiently expressing XopJ-myc, against the empty vector control results are on record in article PMC3681735.

In the assay the target is NtRPT6-GFP (Nicotiana tabacum) (UniProt L7UU40).

As to “XopJ-myc (from UniProt A0AB38E6N7 1-316) (natural protein)”, the proteasome activity (breakdown of Suc-LLVY-AMC) in total extracts of N. benthamiana leaves transiently expressing XopJ-myc, against the empty vector control came out at 40%.
